{
  "source": "patent US20050175986A1",
  "about": "(SMIT KLINE BEECHAM, published 2005)",
  "binders": {"B1": {"name": "Gλ-1B monoclonal antibody (antibody, human IgG1, V domains shown)", "VH": "EVQLVESGGGLVQPGGSLRLSCAASGVSLSGYKMNWVRQAPGKGLEWVSSITGMSNYIHYSDSVKGRFTISRDNAMNSLYLQMNSLTAEDTGVYYCATQPGELAPFDHWGQGTLVTVSS", "VL": "QSVLTQPPSVSAAPGQKVTISCTGSSSNLGAGYDVHWYRQLPGTAPKLLIYDNNNRPSGVPDRFSGSKSGPSASLAISGLQAEDEADYYCQSYDSSLNGYVFGTGTQLTVLG", "notes": "Full length human IgG1, lambda light chain; made in COS and CHO cells; also called Gλ-1 mAB B; mAB B"}},
  "molecular_target": "T1, recombinant F protein of Respiratory Syncytial Virus (Respiratory Syncytial Virus, UniProt P03420 26-524)",
  "T1 construct": "Recombinant F-protein as described in P. Tsui et al, J. Immunol; 157:772-780 (1996); Coated on plastic in the ELISAs; also called recombinant RSV F-protein; rF protein",
  "T1 sequence (P03420 26-524 limits assumed)": "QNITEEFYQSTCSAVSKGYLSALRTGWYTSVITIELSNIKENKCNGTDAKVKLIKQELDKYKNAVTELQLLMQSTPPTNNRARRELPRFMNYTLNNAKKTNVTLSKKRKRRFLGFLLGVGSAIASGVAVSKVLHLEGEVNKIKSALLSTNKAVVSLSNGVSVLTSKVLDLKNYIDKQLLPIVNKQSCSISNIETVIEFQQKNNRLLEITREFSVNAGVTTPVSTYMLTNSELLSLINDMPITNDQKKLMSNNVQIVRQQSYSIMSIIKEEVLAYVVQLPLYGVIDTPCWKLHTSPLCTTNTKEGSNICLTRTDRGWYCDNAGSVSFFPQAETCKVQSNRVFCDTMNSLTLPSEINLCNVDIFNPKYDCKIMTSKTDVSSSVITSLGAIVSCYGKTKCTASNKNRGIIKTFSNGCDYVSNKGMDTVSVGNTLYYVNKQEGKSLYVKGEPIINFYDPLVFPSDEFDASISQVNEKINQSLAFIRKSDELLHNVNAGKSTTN",
  "assay": "solid phase ELISA on coated recombinant F protein",
  "description": "Binding of the Gλ-1 mABs to recombinant F protein was measured in a standard solid phase ELISA. Antigen diluted in PBS pH 7.0 was adsorbed onto polystyrene round-bottom microplates (Dynatech, Immunolon II) for 18 hours. Wells were then aspirated and blocked with 0.5% boiled casein (BC) in PBS containing 1% Tween 20 […] for two hours. Antibodies (50 μl/well) were diluted to varying concentrations in PBS/0.5% BC containing 0.025% Tween 20 and incubated in antigen coated wells for one hour. Plates were washed three times with PBS containing 0.05% Tween 20, using a Titertek 320 microplate washer, followed by addition of HRP-labelled protein A/G (50 μl) diluted 1:5000. After washing three times, TMBlue substrate (TSI, #TM102) was added and plates were incubated an additional 15 minutes. The reaction was stopped by addition of 1 N H₂SO₄ and absorbance read at 450 nm using a Biotek ELISA reader.\nBinding of the Gλ-1 mABs to rF protein was inhibited by mAb B4, for which the F protein amino acids critical for antigen recognition are amino acids 268, 272 and 275 of SEQ ID NO: 20). Binding of the Gλ-1 mABs to rF protein was not inhibited by mAb RSMU19, for which F protein amino acid 429 of SEQ ID NO: 20 is critical for antigen recognition.",
  "data": [
    {"binder": "B1", "values": [
      {"measurement": "EC50", "result": 2.6, "unit": "ng/mL"}
    ]}
  ]
}
